FireProtDB (doi:10.1038/s41598-020-57873-3)

B1: I144P, Q8GB52 (parent)
chain: MLKKVLSCCIAATFGIYSASSLAQSSVINSTENSQQPIAPLVLASSDDAITDRYIVVLKQPQMLMNDAAGLQQFTQQTVGLMANSFSIKTDDVFDSSIIGFVANLDALQLKQLRRDSRVEYIEQDQILSIDPVVSNEAVQSNAIWGLDRIDQRNLPLDRNYNANFDGFGVTAYVIDTGVNNNHEEFGGRSVSGYDFVDNDADSSDCNGHGTHVAGTIGGSQYGVAKNVNIVGVRVLSCSGSGTTSGVISGVDWVAQNASGPSVANMSLGGGQSTALDSAVQGAIQSGVSFMLAAGNSNADACNTSPARVPSGVTVGSTTSSDSRSSFSNWGSCVDLFAPGSQIKSAWYDGGYKTISGTSMATPHVAGVAALYLQENNGLTPLQLTGLLNSRASENKVSDTRGTTNKLLYSLADSGCEPDCGGPTPGPDPDGKLVSGVPVNGLSGSRGQKDYFYMDLQQGQQLTVVTIGGTGDADLYLRFGDKPTLNTWDCRPYRSGNSETCTVNVTQSGRYHVMLNAYSAYSGLTLQANF

Variants of: B1
Details: Vibrio sp. PA-44, pH 8.6, Thermal, structure 1SH7, whole UniProt chain shown
[1] = CD, Glycine 25 mM, NaCl and CaCl2 100 mM and 15 mM
[2] = CD, glycine, Nacl / Cacl2 100000 / 15000, transition: 2, reversible: no
[3] = DSC, Glycine 25 mM, NaCl and CaCl2 100 mM and 15 mM
[4] = DSC, glycine, Nacl / Cacl2 100000 / 15000, transition: 2, reversible: no

Row | Variant | Tm [1] | change of melting temperature, mutant - wild type (higher = more stable) [1] | Tm [2] | change of melting temperature, mutant - wild type (higher = more stable) [2] | Tm [3] | change of melting temperature, mutant - wild type (higher = more stable) [3] | unfolding enthalpy (calorimetric) [3] | Tm [4] | change of melting temperature, mutant - wild type (higher = more stable) [4] | unfolding enthalpy (calorimetric) [4]
1 | I144P | 65.1 °C | 3.2 °C | 65.1 °C | 3.2 °C | 65.7 °C | 1.8 °C | 572 kJ/mol | 65.7 °C | 1.8 °C | 570 kJ/mol
2 | N142P I144P N377P T404P | 72.1 °C | 10.2 °C | 72.1 °C | 10.2 °C | 77.2 °C | 13.3 °C | 686 kJ/mol | 77.2 °C | 13.3 °C | 683 kJ/mol
3 | N142P | 64.8 °C | 2.9 °C |  |  | 66.8 °C | 2.9 °C | 535 kJ/mol | 66.8 °C | 2.9 °C | 533 kJ/mol
4 | N142P I144P | 67.8 °C | 5.9 °C | 67.8 °C | 5.9 °C | 72 °C | 8.1 °C | 649 kJ/mol | 72 °C | 8.1 °C | 646 kJ/mol
5 | N377P |  |  | 60.7 °C | -1.2 °C | 63.6 °C | -0.3 °C | 558 kJ/mol | 63.6 °C | -0.3 °C | 556 kJ/mol
6 | T404P | 61.6 °C | -0.3 °C |  |  | 64.5 °C | 0.6 °C | 453 kJ/mol | 64.5 °C | 0.6 °C | 451 kJ/mol
7 | N142P I144P T404P | 69.2 °C | 7.3 °C | 69.2 °C | 7.3 °C | 73.6 °C | 9.7 °C | 700 kJ/mol | 73.6 °C | 9.7 °C | 697 kJ/mol
8 | N142P I144P N377P | 68.8 °C | 6.9 °C | 68.8 °C | 6.9 °C | 72 °C | 8.1 °C | 682 kJ/mol | 72 °C | 8.1 °C | 679 kJ/mol
